# Results published in the RNAGym collection of RNA variant scans (doi:10.1073/pnas.2313332121).
# B1: TPR t1 (parent)
# chain: GACCAAUCUGCCCUCAGAGCUCGAGAACAUCUUCGGAUGCAGAGGAGGCAGGCUUCGGUGGCGCGAUAGCGCCAACGUCCUCAACCUCCAAUGCAUCCCACCACAUGAUGAUGCCUGAAGAGCCUUGGUUUUUUG
# Variants of: B1
# Experiment: polymerase ribozyme fitness, log enrichment relative to wild type (log ratio); higher = more active; in vitro selection for triplet polymerase activity
# Method in brief: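 Each subunit of a heterodimeric triplet polymerase ribozyme was represented by a PCR-built, transcribed mutant library that underwent triplicate single-round in vitro selection with frozen incubation at −7 °C. Extended constructs were recovered by gel excision, streptavidin-bead capture and RT-PCR, and Illumina sequencing of input and output libraries kept genotypes with ≥10 input reads and ≥1 read per output. Fitness is the logarithm of genotype enrichment relative to wild-type enrichment, from inverse-variance-weighted replicate averages, with a logarithm base of 2.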
row,Variant,polymerase ribozyme fitness (log ratio)
1,G71A C115A C123U,-2.76
2,U81A A105U U132C,-2.04
3,G61A C88A C114G U116C G122A,-5.26
4,A6C G10A U30C G71A,-5.5
5,G69U U78G C102U,-0.192
6,U9A U55A C56A G63U,-5.03
7,U9A C73U G117A,0.559
8,C49A U78C,-0.24
9,C12U A100U,-0.242
10,C4U C13G C56G C72U C73A,-5.32
11,U7A G69U C98U,-0.115
12,C99A G127C,-5.7
13,A26C G45C U87C,-6.66
14,G36U A111U,-3.05
15,U55A C85U,-1.1
16,U7C G17A G63U A121C,-1.33
17,C72A G110A C115A,-2.51
18,U9C G48C C101A G117A,-1.58
19,G93A C102A,-1.81
20,C8A U9G U21G,-1.13
21,U109C U132A,-4.52
22,A27G C56A A74C U87A U112A,-0.205
23,C11G G61C U78C U126A,-4.7
24,G47U C72U,-1.71

row,Variant,polymerase ribozyme fitness (log ratio)
1,C8A U21G A50G C88A C124A,-0.0763
2,G57U G60A C114A U129A,-3.12
3,C8U C70G,-1.58
4,A46U C86A A118G,-0.968
5,C15A C72U,-2.75
6,C3G C102A,-4.71
7,U81A U87A,-1.41
8,C8U C62U U87A A121U,1.89
9,G93U G122A,-1.55
10,G45C C49G U59G C89U,-3.44
11,A27C C56A C76G,-3.81
12,C49U C82A,-0.514
13,U54C G58A G69C A84U,-1.08
14,C34U C86U C104U C114U,-4.34
15,C89U C124U,1.37
16,G71U U78C C98U A119U,-1.19
17,G42U G52U U96A C124G,-1.76
18,C20U C28A,-3.79
19,G17U G110C,-7.86
20,C85A G117A,-2.97
21,G47A A68G,-3.62
22,A6C A18C G60U C82G G127U,-5.44
23,A95G G117C,-3.87
24,C3U U7C G48U C70U,-1.98

row,Variant,polymerase ribozyme fitness (log ratio)
1,U9C C53G C114U U116A C123A U130C,-7.66
2,A18G G19U A46C C56A U87A,-2.82
3,C62A C99U,-3.69
4,A37U C88U C101G C115G,-3.98
5,C31U G39A G69U G120U,-3.44
6,U9C A16G G57C G110C,-4.22
7,A16U C123U,0.19
8,A16U C123A,-1.57
9,C79G C94A,-2.62
10,A41C C114U,-2.16
11,G51A C62A U116G C124A,-5.64
12,G60C C88U G117A,-1.68
13,U96A G120C,0.228
14,G47A G48A U129A,-2.41
15,A18U G39A U54A C70A C124U G127A,-4.66
16,C15G C56U A83U C115G C123A,-4.36
17,A43U A46U U106A U131A,-2.17
18,A27U U59C,-3.53
19,G60C C82G,-0.49
20,A24G G69U,-0.509
21,G35C C97A,-5.43
22,G17C A41U U130A,-4.18
23,C12U U96G G128C,-2.88
24,G42A C56A U96G,-2.79

row,Variant,polymerase ribozyme fitness (log ratio)
1,C8U C11G G93A,-0.424
2,A29U G93A,-2.13
3,C73A G120U,0.347
4,C3U C62U A74U C89G,-2.26
5,G71U G120C,0.378
6,A26G U59A C62A G63A,-5.96
7,C22G C80U,-4.33
8,G25U C31G G42A A46U C70U G110U G128U,-6.32
9,A29C G44C U92C,-5.1
10,G61A A84U C94A U131C,-0.628
11,A83U C89U U96C U131G,-1.02
12,A2C G19A A29C A41G A43U C64G G113A C123A U126G,-5.93
13,C13G G58A C70U A105C C124A G127A,-4.77
14,A18C G60A U78G G110C U131A,-7.27
15,C62A A103U,-5.71
16,C4A C99U,-4.5
17,C8G G52U C73A U92G,-2.91
18,A2G G19A A43G C80U C104U,-4.42
19,A6U C49G C62A U78C C88A A119U,-3.67
20,G61C G113U,-4.1
21,U96A U131G,-1.96
22,A24G C40U C62G,-3.54
23,C11U C15A G39C G61C C114A,-5.39
24,C20A G48U,-3.37

row,Variant,polymerase ribozyme fitness (log ratio)
1,C22G A90U U106A A111U,-3.25
2,A18U C49G A91G,-3.84
3,U32G C70U,-7.16
4,A27C A84G,-5
5,A90G C114A,-1.4
6,A5U C11G A16U G60U A103C,-5.34
7,G44U A91C G93A,-1.99
8,G39C A50U G61A,-1.4
9,C20U C73U,-1.6
10,A75U C76U,-1.57
11,C82G G120A,-0.124
12,G10A A90C G93C A111U,-5.12
13,U33A U87A U133G,-4.32
14,A50U G60U U125G U129C,-3.19
15,G60C U130A U133A,-1.59
16,U9G U14G G93A,-0.26
17,U30A C73A,-5.19
18,G60A A105U,-1.64
19,C49A U81A A90U C123U,-1.24
20,C3U A43U C56G U81A A95U A111G G122A,-5.71
21,C49A U112A,1.49
22,U7G A50U C64U G117C,-4.92
23,G48U C70G,-4.24
24,C20U C64U C104A G107C G128A,-6.14

row,Variant,polymerase ribozyme fitness (log ratio)
1,C49A C64U A66C C80A G117A,-7.53
2,G45C G51U G71C,-4.44
3,A5U C80G,-5.2
4,G77A A90G,-0.174
5,A46G C98U G117C,-5.69
6,C28U G71U,-2.6
7,G39A G51U A83G A95C,-3.53
8,G71U A84C,-0.343
9,A6C G35U A83U C98G A121U,-4.12
10,C53G G61C,-1.1
11,U9C C72U,0.343
12,C4U G44C C64U A119U U133A,-2.68
13,C11G G42C C49U G117C C124G,-4.14
14,C13U G61C G93U U132C,-2.93
15,C49U C76U U81A C88A,-3.72
16,A46C G47A A50G U129A,-3.12
17,U9A C99A,-6.7
18,C56G C72G U87G C98U,-1.99
19,A2U A50U,-3.14
20,G61A U78C C85U U96C C101U U109G,-5.66
21,G17A G63U U133C,-3.8
22,G44A C72G U112G G117A,-5.1
23,A27U G60C C82G G120C G128U,-4.87
24,C28U C73A,-2.23

row,Variant,polymerase ribozyme fitness (log ratio)
1,G45U U54G G77C C123G,0.415
2,G45A U87G,-0.388
3,U55G A66U,-0.936
4,C56A U129G,-2.29
5,C20A C49U G61U C85A,-3.53
6,U30G U54A U112C,-5.05
7,G47U A91C G113A U130A,-3.79
8,C56G C114A,-2
9,A5U G17C G23A C115G U131C,-5.42
10,C8G C89A A105U,-3.66
11,C8G C11U C85U U130C,-0.895
12,C20A A84G C86A G128U U130C,-3.64
13,U33G G69C C80G A91C U92A C101U C115G,-7.68
14,C4G G57A G58C A95C G113U U125C,-6.6
15,C12G A27U C56U C101G C102A C104G C114U,-5.64
16,G45A G61C U81G,-6.11
17,G69A C123G,-0.288
18,A43C C56U,-2.57
19,C73G U81G,-3.66
20,A5U C13G C49A G63U U81G A121C,-3.63
21,G60A A84C,-0.0134
22,A5C U38G U96C C104U,-2.11
23,G45U C49A C88U A105U G128A,-4.94
